Results as given in PMC6821171, “LYAR potentiates rRNA synthesis by recruiting BRD2/4 and the MYST-type acetyltransferase KAT7 to rDNA” (Nucleic Acids Research, 2019).

Target: T1, peptide LYAR_(175-219) (human, UniProt Q9NX58 175-219)
T1 construct: LYAR, human, residues 175-219
Assay: ITC; peptide BRD2 489-540 with peptide LYAR 175-219 (Supplementary Figure S5E)
Settings: both partners purified

B1: peptide BRD2_(489-540) (peptide, UniProt P25440 489-540, looked up)
peptide: SSSEEEEEEDEEDEEEEESESSDSEEERAHRLAELQEQLRAVHEQLAALSQG
notes: Bromodomain-containing protein 2, human, residues 489-540
stoichiometry N: 1
